According to patent US20240336672A1:

Key:
Conditions in all cases: remark: other sources report otherwise
[1] = molecular target: SARS-CoV-2 RBD domain, Wuhan (SARS-CoV-2); experiment: ELISA
[2] = molecular target: SARS-CoV-2 RBD domain, Wuhan (SARS-CoV-2); experiment: ELISA; design: unit not given beside the values
[3] = molecular target: SARS-CoV-2 RBD domain, Wuhan (SARS-CoV-2); experiment: ELISA; design: unit not given beside the values; remark: listed apart in the source
[4] = molecular target: SARS-CoV-2 RBD domain, Wuhan (SARS-CoV-2); experiment: ELISA; design: unit not given beside the values; remark: listed apart in the source
[5] = molecular target: CoV-MERS Spike ectodomain (MERS-CoV), K9N5Q8; experiment: ELISA, coated antigen
[6] = molecular target: SARS-CoV-1 Spike ectodomain (SARS-CoV-1), P59594; experiment: ELISA, coated antigen
[7] = molecular target: SARS-CoV-2 RBD domain, Wuhan (SARS-CoV-2); experiment: ELISA, coated antigen
[8] = molecular target: T1, SARS-CoV-2 Spike (S) protein on cells (S-Flow assay) (SARS-CoV-2), P0DTC2; experiment: flow cytometry (Mock 2.5)
[9] = molecular target: T1, SARS-CoV-2 Spike (S) protein on cells …; experiment: flow cytometry, transfected cells
[10] = molecular target: SARS-CoV-2 RBD domain, Wuhan (SARS-CoV-2); experiment: RBD/ACE2 blocking ELISA
[11] = molecular target: SARS-CoV-2 RBD domain, Wuhan (SARS-CoV-2); experiment: SPR (Biacore), antibody immobilised
[12] = molecular target: SARS-CoV-2 RBD domain, Wuhan (SARS-CoV-2); experiment: RBD-ACE2 competition ELISA; design: unit not given beside the values
[13] = molecular target: SARS-CoV-2 RBD domain, Wuhan (SARS-CoV-2); experiment: RBD-ACE2 competition ELISA; design: unit not given beside the values; remark: listed apart in the source
[14] = molecular target: T1, SARS-CoV-2 Spike (S) protein on cells …; experiment: S-Flow flow cytometry, spike-expressing cells
[15] = molecular target: SARS-CoV-2 RBD domain, Wuhan (SARS-CoV-2); experiment: competition ELISA vs bio-Cv2.1169
[16] = molecular target: SARS-CoV-2 RBD domain, Wuhan (SARS-CoV-2); experiment: competition ELISA vs bio-Cv2.1353
[17] = molecular target: SARS-CoV-2 RBD domain, Wuhan (SARS-CoV-2); experiment: competition ELISA vs bio-Cv2.3194
[18] = molecular target: SARS-CoV-2 RBD domain, Wuhan (SARS-CoV-2); experiment: competition ELISA vs bio-Cv2.3235
[19] = molecular target: SARS-CoV-2 RBD domain, Wuhan (SARS-CoV-2); experiment: competition ELISA vs bio-Cv2.5213
[20] = molecular target: SARS-CoV-2 RBD domain, Wuhan (SARS-CoV-2); experiment: SPR (Biacore), IgG immobilized, viral protein as analyte
[21] = molecular target: SARS-CoV-2 RBD domain, Wuhan (SARS-CoV-2); experiment: competition ELISA, biotinylated RBD to immobilized ACE2 ectodomain
[22] = molecular target: SARS-CoV-2 RBD domain, Wuhan (SARS-CoV-2); experiment: SPR (Biacore), antibody coupled to CM5 chip, viral protein as analyte

B1: Cv2.3194 (recombinant human IgG1) (antibody)
heavy: EVQLVESGGGLIQPGGSLRLSCAASGITVTSNYMSWVRQAPGKGLEWVSVIYPGGSTFYADSVKGRFTISRDNSKNTLYLQMNSLRAEDTAVYYCARDLVVYGMDVWGQGTTVTVSSASTKGPSVFPLAPSSKSTSGGTAALGCLVKDYFPEPVTVSWNSGALTSGVHTFPAVLQSSGLYSLSSVVTVPSSSLGTQTYICNVNHKPSNTKVDKKVEPKSCDKTHTCPPCPAPELLGGPSVFLFPPKPKDTLMISRTPEVTCVVVDVSHEDPEVKFNWYVDGVEVHNAKTKPREEQYNSTYRVVSVLTVLHQDWLNGKEYKCKVSNKALPAPIEKTISKAKQPREPQVYTLPPSRDELTKNQVSLTCLVKGFYPSDIAVEWESNGQPENNYKTTPPVLDSDGSFFLYSKLTVDKSRWQQGNVFSCSVMHEALHNHYTQKSLSLSPGK
light: EIVLTQSPGTLSLSPGERATLSCRASQSVSSSYLAWYQQKPGQAPRLLIYGASSRATGIPGRFSGSGSGTDFTLTISRLEPEDFAIYYCQQGVTFGGGTKVEIKRTVAAPSVFIFPPSDEQLKSGTASVVCLLNNFYPREAKVQWKVDNALQSGNSQESVTEQDSKDSTYSLSSTLTLSKADYEKHKVYACEVTHQGLSSPVTKSFNRGEC
OD405nm [1]: 3.4 | AUC (RBD bind.) [2]: 12 | AUC [3]: 3 | AUC (RBD bind.) [4]: 13 | ELISA OD [5]: 0.1 OD | ELISA OD [6]: 0.1 OD | ELISA OD [7]: 3.6 OD | log10 ΔgMFI [8]: 4.4 | log10 ΔgMFI [9]: 4 | % binding inhibition [10]: 96% | Kd [11]: < 100 pM | AUC (RBD block.) [12]: 365 | AUC (RBD block.) [13]: 183 | S-Flow (%) [14]: 94% | S-Flow (MFI) [14]: 260000 MFI | % inhibition (competition) [15]: 56 | % inhibition (competition) [16]: 65 | % inhibition (competition) [17]: 72 | % inhibition (competition) [18]: 74 | % inhibition (competition) [19]: 70 | Kd [20]: 6.27 pM | koff [20]: 3.06e-06 s⁻¹ | kon [20]: 487000 M⁻¹ s⁻¹ | IC50 [21]: 0.099 µg/mL | IC90 [21]: 0.185 µg/mL | Kd [22]: < 1 pM
